# B1: poly-dT60 (ssDNA)
# DNA: TTTTTTTTTTTTTTTTTTTTTTTTTTTTTTTTTTTTTTTTTTTTTTTTTTTTTTTTTTTT
# Target: Mcm2WT-7 (Mcm2-7) (Saccharomyces cerevisiae, UniProt P29469;P24279;P30665;P29496;P53091;P38132 1-868;1-971;1-933;1-775;1-1017;1-845)
# Assay: EMSA
binder,measurement,value
B1,binding result,binds

# Source: publication PMC3167627
